For assay [1], the target named is T1, Cul1•^GSTRbx1 (UniProt Q13616 1-776; P62877 1-108). Description: pull-down.
Assay [2] has as its target T2, Cul1^AMC•Rbx1 (UniProt Q13616 1-776; P62877 1-108, AMC on the C-terminus (GGGG^AMC peptide joined by sortase)). Briefly: FRET or BRET. (In BRET a luciferase serves as donor, and the signal depends on an acceptor being close.)
Assay [3] deals with T2, Cul1^AMC•Rbx1. Briefly: FRET or BRET. The source holds these as a separate data set.
Assay [4] deals with T1, Cul1•^GSTRbx1. Description: pull-down. The source holds these as a separate data set.
For assay [5], the target named is T1, Cul1•^GSTRbx1. Briefly: pull-down. The source holds these as a separate data set.

Like-named read-outs stand apart in the source and are kept apart here.

T1 sequence (Q13616 whole entry, chain 1 of 2): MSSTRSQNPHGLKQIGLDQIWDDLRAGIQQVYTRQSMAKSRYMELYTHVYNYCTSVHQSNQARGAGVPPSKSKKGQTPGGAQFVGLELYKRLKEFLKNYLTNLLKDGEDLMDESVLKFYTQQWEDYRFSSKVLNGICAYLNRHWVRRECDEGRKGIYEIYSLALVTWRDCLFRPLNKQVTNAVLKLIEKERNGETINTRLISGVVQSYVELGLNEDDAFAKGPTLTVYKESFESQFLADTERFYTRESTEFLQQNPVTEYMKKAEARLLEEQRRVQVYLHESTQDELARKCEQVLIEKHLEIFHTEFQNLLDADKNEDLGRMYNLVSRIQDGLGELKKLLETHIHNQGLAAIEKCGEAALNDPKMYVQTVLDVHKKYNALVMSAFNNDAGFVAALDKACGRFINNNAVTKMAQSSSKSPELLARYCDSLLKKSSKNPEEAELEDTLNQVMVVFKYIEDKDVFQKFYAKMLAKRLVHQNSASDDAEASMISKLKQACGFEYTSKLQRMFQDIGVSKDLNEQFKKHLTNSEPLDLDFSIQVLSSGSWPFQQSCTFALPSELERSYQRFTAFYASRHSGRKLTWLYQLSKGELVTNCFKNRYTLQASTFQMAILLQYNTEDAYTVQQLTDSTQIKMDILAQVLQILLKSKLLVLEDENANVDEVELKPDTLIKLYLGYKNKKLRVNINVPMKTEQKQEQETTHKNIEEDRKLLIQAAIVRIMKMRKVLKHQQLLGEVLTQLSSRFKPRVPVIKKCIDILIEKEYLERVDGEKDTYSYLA
T1 sequence (P62877 whole entry, chain 2 of 2): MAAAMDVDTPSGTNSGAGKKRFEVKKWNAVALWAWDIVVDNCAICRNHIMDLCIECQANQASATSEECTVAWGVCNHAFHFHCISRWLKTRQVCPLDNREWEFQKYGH
T2 sequence (Q13616 whole entry, chain 1 of 2): as the sequence (Q13616 whole entry, chain 1 of 2) above
T2 sequence (P62877 whole entry, chain 2 of 2): as the sequence (P62877 whole entry, chain 2 of 2) above

B1: ^ΔH1Cand1 (domain or fragment, UniProt Q86VP6 15-1230, looked up)
chain: MTSSDKDFRFMATNDLMTELQKDSIKLDDDSERKVVKMILKLLEDKNGEVQNLAVKCLGPLVSKVKEYQVETIVDTLCTNMLSDKEQLRDISSIGLKTVIGELPPASSGSALAANVCKKITGRLTSAIAKQEDVSVQLEALDIMADMLSRQGGLLVNFHPSILTCLLPQLTSPRLAVRKRTIIALGHLVMSCGNIVFVDLIEHLLSELSKNDSMSTTRTYIQCIAAISRQAGHRIGEYLEKIIPLVVKFCNVDDDELREYCIQAFESFVRRCPKEVYPHVSTIINICLKYLTYDPNYNYDDEDEDENAMDADGGDDDDQGSDDEYSDDDDMSWKVRRAAAKCLDAVVSTRHEMLPEFYKTVSPALISRFKEREENVKADVFHAYLSLLKQTRPVQSWLCDPDAMEQGETPLTMLQSQVPNIVKALHKQMKEKSVKTRQCCFNMLTELVNVLPGALTQHIPVLVPGIIFSLNDKSSSSNLKIDALSCLYVILCNHSPQVFHPHVQALVPPVVACVGDPFYKITSEALLVTQQLVKVIRPLDQPSSFDATPYIKDLFTCTIKRLKAADIDQEVKERAISCMGQIICNLGDNLGSDLPNTLQIFLERLKNEITRLTTVKALTLIAGSPLKIDLRPVLGEGVPILASFLRKNQRALKLGTLSALDILIKNYSDSLTAAMIDAVLDELPPLISESDMHVSQMAISFLTTLAKVYPSSLSKISGSILNELIGLVRSPLLQGGALSAMLDFFQALVVTGTNNLGYMDLLRMLTGPVYSQSTALTHKQSYYSIAKCVAALTRACPKEGPAVVGQFIQDVKNSRSTDSIRLLALLSLGEVGHHIDLSGQLELKSVILEAFSSPSEEVKSAASYALGSISVGNLPEYLPFVLQEITSQPKRQYLLLHSLKEIISSASVVGLKPYVENIWALLLKHCECAEEGTRNVVAECLGKLTLIDPETLLPRLKGYLISGSSYARSSVVTAVKFTISDHPQPIDPLLKNCIGDFLKTLEDPDLNVRRVALVTFNSAAHNKPSLIRDLLDTVLPHLYNETKVRKELIREVEMGPFKHTVDDGLDIRKAAFECMYTLLDSCLDRLDIFEFLNHVEDGLKDHYDIKMLTFLMLVRLSTLCPSAVLQRLDRLVEPLRATCTTKVKANSVKQEFEKQDELKRSAMRAVAALLTIPEAEKSPLMSEFQSQISSNPELAAIFESIQKDSSSTNLESMDTS
As to B1, the “fold increase of KD over WT Cand1” value with Cul1•^GSTRbx1 [1] was roughly 4.5 fold. Moreover, the “fold of koff (fast phase) over WT Cand1” value with Cul1^AMC•Rbx1 [2] was 21 fold.

B2: ^FlAsHΔH1Cand1 (domain or fragment, UniProt Q86VP6 15-1230, looked up)
chain: B1 chain
modifications: FlAsH (Lumio Green) on the N-terminal tetracysteine tag
In turn, B2 showed a Kd with Cul1^AMC•Rbx1 [3] of 0.7 pM.

B3: Cand1 (natural protein, UniProt Q86VP6 1-1230, looked up)
chain: MASASYHISNLLEKMTSSDKDFRFMATNDLMTELQKDSIKLDDDSERKVVKMILKLLEDKNGEVQNLAVKCLGPLVSKVKEYQVETIVDTLCTNMLSDKEQLRDISSIGLKTVIGELPPASSGSALAANVCKKITGRLTSAIAKQEDVSVQLEALDIMADMLSRQGGLLVNFHPSILTCLLPQLTSPRLAVRKRTIIALGHLVMSCGNIVFVDLIEHLLSELSKNDSMSTTRTYIQCIAAISRQAGHRIGEYLEKIIPLVVKFCNVDDDELREYCIQAFESFVRRCPKEVYPHVSTIINICLKYLTYDPNYNYDDEDEDENAMDADGGDDDDQGSDDEYSDDDDMSWKVRRAAAKCLDAVVSTRHEMLPEFYKTVSPALISRFKEREENVKADVFHAYLSLLKQTRPVQSWLCDPDAMEQGETPLTMLQSQVPNIVKALHKQMKEKSVKTRQCCFNMLTELVNVLPGALTQHIPVLVPGIIFSLNDKSSSSNLKIDALSCLYVILCNHSPQVFHPHVQALVPPVVACVGDPFYKITSEALLVTQQLVKVIRPLDQPSSFDATPYIKDLFTCTIKRLKAADIDQEVKERAISCMGQIICNLGDNLGSDLPNTLQIFLERLKNEITRLTTVKALTLIAGSPLKIDLRPVLGEGVPILASFLRKNQRALKLGTLSALDILIKNYSDSLTAAMIDAVLDELPPLISESDMHVSQMAISFLTTLAKVYPSSLSKISGSILNELIGLVRSPLLQGGALSAMLDFFQALVVTGTNNLGYMDLLRMLTGPVYSQSTALTHKQSYYSIAKCVAALTRACPKEGPAVVGQFIQDVKNSRSTDSIRLLALLSLGEVGHHIDLSGQLELKSVILEAFSSPSEEVKSAASYALGSISVGNLPEYLPFVLQEITSQPKRQYLLLHSLKEIISSASVVGLKPYVENIWALLLKHCECAEEGTRNVVAECLGKLTLIDPETLLPRLKGYLISGSSYARSSVVTAVKFTISDHPQPIDPLLKNCIGDFLKTLEDPDLNVRRVALVTFNSAAHNKPSLIRDLLDTVLPHLYNETKVRKELIREVEMGPFKHTVDDGLDIRKAAFECMYTLLDSCLDRLDIFEFLNHVEDGLKDHYDIKMLTFLMLVRLSTLCPSAVLQRLDRLVEPLRATCTTKVKANSVKQEFEKQDELKRSAMRAVAALLTIPEAEKSPLMSEFQSQISSNPELAAIFESIQKDSSSTNLESMDTS
Turning to B3, in the assay with Cul1•^GSTRbx1 [4], the binding result is recorded as “binds”.

B4: Cand1^1-603 (domain or fragment, UniProt Q86VP6 1-603, looked up)
chain: MASASYHISNLLEKMTSSDKDFRFMATNDLMTELQKDSIKLDDDSERKVVKMILKLLEDKNGEVQNLAVKCLGPLVSKVKEYQVETIVDTLCTNMLSDKEQLRDISSIGLKTVIGELPPASSGSALAANVCKKITGRLTSAIAKQEDVSVQLEALDIMADMLSRQGGLLVNFHPSILTCLLPQLTSPRLAVRKRTIIALGHLVMSCGNIVFVDLIEHLLSELSKNDSMSTTRTYIQCIAAISRQAGHRIGEYLEKIIPLVVKFCNVDDDELREYCIQAFESFVRRCPKEVYPHVSTIINICLKYLTYDPNYNYDDEDEDENAMDADGGDDDDQGSDDEYSDDDDMSWKVRRAAAKCLDAVVSTRHEMLPEFYKTVSPALISRFKEREENVKADVFHAYLSLLKQTRPVQSWLCDPDAMEQGETPLTMLQSQVPNIVKALHKQMKEKSVKTRQCCFNMLTELVNVLPGALTQHIPVLVPGIIFSLNDKSSSSNLKIDALSCLYVILCNHSPQVFHPHVQALVPPVVACVGDPFYKITSEALLVTQQLVKVIRPLDQPSSFDATPYIKDLFTCTIKRLKAADIDQEVKERAISCMGQIICNLGDN
In the case of B4, the binding result with Cul1•^GSTRbx1 [5] is reported as “binds”.

A word on the Kd: it is the equilibrium constant for the complex coming apart. Read a high Kd as lower affinity.

(Values after paper PMC5836512 (Molecular cell, 2018).)
